Patent publication US20160264649A1

Assays:
Assay in all cases: cell-based or functional assay
[1] = target: HIV-1 Env of isolate 92UG001 (subtype D) (HIV-1)
[2] = target: HIV-1 Env of isolate 92UG005 (subtype D) (HIV-1)
[3] = target: HIV-1 Env of isolate 92UG024 (subtype D) (HIV-1)
[4] = target: HIV-1 Env of isolate 92UG046 (subtype D) (HIV-1)
[5] = target: HIV-1 Env of isolate 92UG114 (subtype D) (HIV-1)
[6] = target: HIV-1 Env of isolate 98CN006 (subtype CRF08_BC) (HIV-1)
[7] = target: HIV-1 Env of isolate 98CN009 (subtype CRF07_BC) (HIV-1)
[8] = target: HIV-1 Env of isolate MGRM-D-001 (subtype D) (HIV-1)
[9] = target: HIV-1 Env of isolate MGRM-D-002 (subtype D) (HIV-1)
[10] = target: HIV-1 Env of isolate MGRM-D-003 (subtype D) (HIV-1)
[11] = target: HIV-1 Env of isolate MGRM-D-004 (subtype D) (HIV-1)
[12] = target: HIV-1 Env of isolate MGRM-D-005 (subtype D) (HIV-1)
[13] = target: HIV-1 Env of isolate MGRM-D-008 (subtype D) (HIV-1)
[14] = target: HIV-1 Env of isolate MGRM-D-011 (subtype D) (HIV-1)
[15] = target: HIV-1 Env of isolate MGRM-D-012 (subtype D) (HIV-1)
[16] = target: HIV-1 Env of isolate MGRM-D-013 (subtype D) (HIV-1)
[17] = target: HIV-1 Env of isolate MGRM-D-014 (subtype D) (HIV-1)
[18] = target: HIV-1 Env of isolate MGRM-D-016 (subtype D) (HIV-1)
[19] = target: HIV-1 Env of isolate MGRM-D-018 (subtype D) (HIV-1)
[20] = target: HIV-1 Env of isolate MGRM-D-019 (subtype D) (HIV-1)
[21] = target: HIV-1 Env of isolate MGRM-D-020 (subtype D) (HIV-1)
[22] = target: HIV-1 Env of isolate MGRM-D-021 (subtype D) (HIV-1)
[23] = target: HIV-1 Env of isolate MGRM-D-022 (subtype D) (HIV-1)
[24] = target: HIV-1 Env of isolate MGRM-D-024 (subtype D) (HIV-1)
[25] = target: HIV-1 Env of isolate MGRM-D-026 (subtype D) (HIV-1)
[26] = target: HIV-1 Env of isolate MGRM-D-028 (subtype D) (HIV-1)
[27] = target: HIV-1 Env of isolate MGRM-D-029 (subtype D) (HIV-1)
[28] = target: HIV-1 Env of isolate MGRM-F1-004 (subtype F) (HIV-1)
[29] = target: HIV-1 Env of isolate MGRM-F1-006 (subtype F) (HIV-1)
[30] = target: HIV-1 Env of isolate MGRM-F1-008 (subtype F) (HIV-1)
[31] = target: HIV-1 Env of isolate MGRM-F1-010 (subtype F) (HIV-1)
[32] = target: HIV-1 Env of isolate MGRM-F1-012 (subtype F) (HIV-1)
[33] = target: HIV-1 Env of isolate MGRM-F1-013 (subtype F) (HIV-1)
[34] = target: HIV-1 Env of isolate MGRM-F1-014 (subtype F) (HIV-1)
[35] = target: HIV-1 Env of isolate MGRM-F1-015 (subtype F) (HIV-1)
[36] = target: HIV-1 Env of isolate MGRM-F1-016 (subtype F) (HIV-1)
[37] = target: HIV-1 Env of isolate MGRM-F1-017 (subtype F) (HIV-1)
[38] = target: HIV-1 Env of isolate MGRM-F1-018 (subtype F) (HIV-1)
[39] = target: HIV-1 Env of isolate MGRM-F1-020 (subtype F) (HIV-1)
[40] = target: HIV-1 Env of isolate MGRM-F1-021 (subtype F) (HIV-1)
[41] = target: HIV-1 Env of isolate MGRM-F1-022 (subtype F) (HIV-1)
[42] = target: HIV-1 Env of isolate MGRM-F1-023 (subtype F) (HIV-1)
[43] = target: HIV-1 Env of pseudovirus isolate MGRM-G-001 (subtype G) (HIV-1)
[44] = target: HIV-1 Env of pseudovirus isolate MGRM-G-004 (subtype G) (HIV-1)
[45] = target: HIV-1 Env of pseudovirus isolate MGRM-G-006 (subtype G) (HIV-1)
[46] = target: HIV-1 Env of pseudovirus isolate MGRM-G-009 (subtype G) (HIV-1)
[47] = target: HIV-1 Env of pseudovirus isolate MGRM-G-011 (subtype G) (HIV-1)
[48] = target: HIV-1 Env of pseudovirus isolate MGRM-G-013 (subtype G) (HIV-1)
[49] = target: HIV-1 Env of pseudovirus isolate MGRM-G-014 (subtype G) (HIV-1)
[50] = target: HIV-1 Env of pseudovirus isolate MGRM-G-015 (subtype G) (HIV-1)
[51] = target: HIV-1 Env of pseudovirus isolate MGRM-G-016 (subtype G) (HIV-1)
[52] = target: HIV-1 Env of pseudovirus isolate MGRM-G-017 (subtype G) (HIV-1)
[53] = target: HIV-1 Env of pseudovirus isolate MGRM-G-019 (subtype G) (HIV-1)
[54] = target: HIV-1 Env of pseudovirus isolate MGRM-G-024 (subtype G) (HIV-1)
[55] = target: HIV-1 Env of pseudovirus isolate MGRM-G-025 (subtype G) (HIV-1)
[56] = target: HIV-1 Env of pseudovirus isolate MGRM-G-027 (subtype G) (HIV-1)
[57] = target: HIV-1 Env of pseudovirus isolate MGRM-G-028 (subtype G) (HIV-1)
[58] = target: envelope of aMLV pseudovirus (negative control)

B1: PGT-125 (antibody, V domains shown)
VH: QSQLQESGPRLVEASETLSLTCNVSGESTGACTYFWGWVRQAPGKGLEWIGSLSHCQSFWGSGWTFHNPSLKSRLTISLDTPKNQVFLKLTSLTAADTATYYCARFDGEVLVYNHWPKPAWVDLWGRGIPVTVSS
VL: QSALTQPPSASGSPGQSITISCNGTATNFVSWYQQFPDKAPKLIIFGVDKRPPGVPDRFSGSRSGTTASLTVSRLQTDDEAVYYCGSLVGNWDVIFGGGTTLTVL
**Q.** What does the source list for B1?
**A.** IC50 (neutralization) [1]: > 50 µg/mL; IC50 (neutralization) [2]: > 50 µg/mL; IC50 (neutralization) [3]: > 50 µg/mL; IC50 (neutralization) [4]: > 50 µg/mL; IC50 (neutralization) [5]: 0.349 µg/mL; IC50 (neutralization) [6]: 0.201 µg/mL; IC50 (neutralization) [7]: 0.03 µg/mL; IC50 (neutralization) [8]: 2.84 µg/mL; IC50 (neutralization) [9]: 0.118 µg/mL; IC50 (neutralization) [10]: 0.065 µg/mL; IC50 (neutralization) [11]: 0.371 µg/mL; IC50 (neutralization) [12]: > 50 µg/mL; IC50 (neutralization) [13]: > 50 µg/mL; IC50 (neutralization) [14]: 0.008 µg/mL; IC50 (neutralization) [15]: > 50 µg/mL; IC50 (neutralization) [16]: > 50 µg/mL; IC50 (neutralization) [17]: 0.12 µg/mL; IC50 (neutralization) [18]: > 50 µg/mL; IC50 (neutralization) [19]: 0.049 µg/mL; IC50 (neutralization) [20]: > 50 µg/mL; IC50 (neutralization) [21]: 0.015 µg/mL; IC50 (neutralization) [22]: 0.04 µg/mL; IC50 (neutralization) [23]: > 50 µg/mL; IC50 (neutralization) [24]: > 50 µg/mL; IC50 (neutralization) [25]: > 50 µg/mL; IC50 (neutralization) [26]: > 50 µg/mL; IC50 (neutralization) [27]: > 50 µg/mL; IC50 (neutralization) [28]: 0.035 µg/mL; IC50 (neutralization) [29]: 0.361 µg/mL; IC50 (neutralization) [30]: > 50 µg/mL; IC50 (neutralization) [31]: > 50 µg/mL; IC50 (neutralization) [32]: > 50 µg/mL; IC50 (neutralization) [33]: > 50 µg/mL; IC50 (neutralization) [34]: > 50 µg/mL; IC50 (neutralization) [35]: > 50 µg/mL; IC50 (neutralization) [36]: > 50 µg/mL; IC50 (neutralization) [37]: > 50 µg/mL; IC50 (neutralization) [38]: > 50 µg/mL; IC50 (neutralization) [39]: > 50 µg/mL; IC50 (neutralization) [40]: > 50 µg/mL; IC50 (neutralization) [41]: > 50 µg/mL; IC50 (neutralization) [42]: 0.012 µg/mL; IC50 [43]: 0.033 µg/mL; IC50 [44]: > 50 µg/mL; IC50 [45]: > 50 µg/mL; IC50 [46]: > 50 µg/mL; IC50 [47]: > 50 µg/mL; IC50 [48]: > 50 µg/mL; IC50 [49]: 0.007 µg/mL; IC50 [50]: > 50 µg/mL; IC50 [51]: > 50 µg/mL; IC50 [52]: > 50 µg/mL; IC50 [53]: > 50 µg/mL; IC50 [54]: > 50 µg/mL; IC50 [55]: > 50 µg/mL; IC50 [56]: 34.4 µg/mL; IC50 [57]: 0.012 µg/mL; IC50 [58]: > 50 µg/mL
